Reference: US20220273823A1, “THERANOSTIC CONJUGATES” (Ariel Scientific Innovations Ltd., priority 2019, published 2022)

Assays:
[1] = Drug (Aza) release from Aza-Flu conjugates in PB, CM and 1.25% LH by time-dependent fluorescence spectra
[2] = Spectral properties of RD, IRD-CLB and 5-CLB in PB and CM; assay type: physicochemical; conditions: for ΦF / λmaxAb / λmaxFl: 25° C.
Protocol: The spectral properties of the dye RD and its conjugates IRD-CLB and 5-CLB were measured at the concentrations (c) of 0.6 μM in 10 mM phosphate buffer pH 7.5 (PB) and cell medium pH 7.5 (CM), both containing 20% of acetonitrile (ACN) to improve solubility of the compounds.
Table 2 presents the absorption (λmaxAb) and emission (λmaxFl) maxima, extinction coefficients (ε) and fluorescence quantum yields (ΦF) of the RD dye and IRD-CLB and 5-CLB conjugates measured at 25° C. in 10 mM phosphate buffer pH 7.5 (PB) and cell medium pH 7.5 (CM).
(§1) The biodegradable ester linker (BL) in IRD-CLB and 5-CLB can be hydrolyzed to release free CLB and, accordingly, IRD turns into RD, which is accompanied by a noticeable change in the spectral properties. The time-dependent emission spectra were recorded in PB and CM (see, FIGS. 9A-D) using the excitation wavelengths 720 nm and 532 nm. The first one enabled monitoring of the decrease in the concentration of IRD-CLB and 5-CLB, while the second one—the increase in the concentration of RD and OctA-RD. Only the NIR fluorescence of IRD-CLB and 5-CLB was detected, when excited at 720 nm; and only the red fluorescence of RD and OctA-RD was detected, when excited at 532 nm.
Absorption spectra were recorded on a Jasco V-730 UV-Vis spectrophotometer and the fluorescence spectra were measured on Edinburgh FS5 spectrofluorometer. The absorption and fluorescence spectra and the quantum yields (ΦF) were measured in a 1-cm quartz cell at ˜0.5 μM dye concentrations in PB 10 mmol buffer pH 7.4 at 25° C. and cell medium pH 7.4. Excitation wavelength was 720 nm and 532 nm. The recorded fluorescence spectra were corrected using the wavelength-dependent instrument sensitivity coefficients. Absorption and emission maxima were measured with accuracy of ±0.3 nm and ±0.5 nm, respectively, and rounded. For the determination of the quantum yields, the integrated relative intensities were measured versus ICG™ in methanol as the reference (ΦF=0.043) and Cy3™ in PBS (ΦF=0.043). The absorbance values measured for the samples and the reference at the excitation wavelength were 0.04-0.06 measured in a 1-cm cell. The absolute quantum yields were calculated according to Equation 1.

[3] = Cleavage rates for IRD-CLB and 5-CLB in PB and cell medium (time-dependent emission spectra); assay type: in vitro ADME; conditions: pH 7.4, incubated at 37° C., read-out: drug release half-life τ1/2 (converted)
Protocol: as §1
Upon the hydrolytic cleavage, the NIR emission band (FNIR) related to IRD decreases and the red emission band (FRed) of RD increases (FIGS. 9A-D). Based on the time-dependent emission spectra, the drug cleavage profiles for IRD-CLB and 5-CLB were obtained (FIG. 9A) and the drug release rates were quantified by the half-lives (τ1/2).
A stock solution of IRD-CLB and 5-CLB in acetonitrile was added to PB 10 mmol buffer pH 7.4 at 25° C. and cell medium pH 7.4, which both contained 20% of acetonitrile. The absorbance of the resulted solutions at the maximum was 0.10±0.01, when measured in a 1-cm standard quartz cell. The solutions were incubated at 37° C. during 24 hours. In certain periods of time fluorescence spectrum was measured.

Panc-1 = assay: XTT cytotoxicity assay, PANC-1; assay type: cell-based, human; conditions: PANC-1, 10 min at 37° C., up to 25 μM, washed, XTT at 24 hours
Protocol: Application of the 5-CLB conjugate equipped with targeting peptide OctA was studied in the TDD monitoring using PANC-1 cancer cell line that overexpress SSTR-2 and SSTR-5 receptors. Efficient delivery of 5-CLB by the conjugated OctA to PANC-1 was verified by the XTT assay. Cytotoxicity of 5-CLB was compared to that of CLB or OctA added separately. The compounds were incubated with cells for 10 min at 37° C. at concentrations up to 25 μM, and subsequently were washed out, and growth inhibition compared to naïve/native cells was assessed in 24 hours.
The cytotoxicity of the peptide-drug conjugates was determined by measuring the mitochondrial enzyme activity, using a commercial XTT assay kit. Panc-1 cell line was cultured in RPMI medium supplemented with 10% heat-inactivated Fetal Bo-vine Serum (FBS), 2 mM glutamine, 1% penicillin and strep-tomycin and cultured at 37° C. in a humidified incubator with 6% CO2. Cells cultures were initiated in microplate wells at a concentration of 2-4×10^4 and the cells were allowed to adhere for 24 hours. […] Absorbance in the wells were measured with a TECAN Infinite M200 ELISA reader at both 480 and 680 nm—the latter being the background absorbance. […]

SSTRs = assay: Competitive binding of 5-CLB and free octreotide to PANC-1 receptors (NIR fluorescence imaging); assay type: cell-based, human; conditions: 5-CLB 10 μM, Oct x1, x3, x10 molar excess, NIR channel, 60 min after incubation
Protocol: The specificity of 5-CLB towards PANC-1 cell line was supported also by a competitive binding of 5-CLB and commercially available octreotide to the PANC-1 receptors. In a series of experiments, PANC-1 cell line was incubated for 10 min in PBS buffer contained 5% DMSO with a constant concentration of 5-CLB (10 μM) and variable concentration of octreotide (×1, ×3 and ×10 molar excess) and washed out. Then the fluorescence images were taken in the NIR channel in 60 minutes after the incubation.
PANC-1 were incubated for 10 minutes at 37° C. in PB with 5-CLB (10 μM) and increasing concentrations of Oct (xl, x3 and x10 molar excess) and both compounds were washed out. Fluorescence images were taken at 60 min after the incubation and fluorescence intensities remaining in the cells were measured. […] At the next step, the ratiometric fluorescence monitoring of CLB release from the 5-CLB conjugate delivered into the PANC-1, has been conducted. The cells were incubated with 5-CLB for 10 min to allow accumulation of the compound, and fluorescence images were taken over time in two channels. The NIR channel enabled measurements of the signal from IRD dye conjugated with CLB (5-CLB) while the Red channel detected the signal from the RD fluorophore formed upon the CLB release. […]

[4] = Ratiometric fluorescence monitoring of CLB release from 5-CLB in PANC-1; assay type: cell-based; conditions: human, PANC-1 cells; PANC-1, 10 μM, 10 min incubation, NIR and Red channels; read-out: CLB cleavage half-life τ1/2
Protocol: The Fluorescent images were acquired by Photometrics CoolSNAP HQ2 camera mounted on an Olympus iX81 fluorescent microscope. For the Red channel a cube comprising a ET560/40x bandpass excitation filter, ET630/75m bandpass emission filter and T5851pxr dichroic filter was used. For the NIR channel a cube comprising a ET740/40x bandpass excitation filter, ET7801p long pass emission filter and T7701pxr dichroic filter was used. To monitor drug release, Panc-1 cell line was grown in six-well culture plates and then washed with PBS (pH 7.4) two times and then incubated 10 minutes with 5-CLB 10 μM solution in PBS (for better solubility PBS with 3% DMSO was used). After incubation, the samples washed thoroughly with PBS (pH 7.4) two times to remove excess conjugate and the fluorescence changes immediately measured by using fluorescent microscope. […]
The band intensities in a representative experiment were quantified by measurement of related fluorescence intensity for each image (via the “Measure” function) with Image J software.
PANC-1 were incubated for 10 minutes at 37° C. in PB with 5-CLB (10 μM) and increasing concentrations of Oct (xl, x3 and x10 molar excess) and both compounds were washed out. Fluorescence images were taken at 60 min after the incubation and fluorescence intensities remaining in the cells were measured. […]

[5] = cell medium (CM), in CM with 20% acetonitrile

| half-life [1] [h] | Structure (SMILES) | ΦF ([2]; CM:ACN (4:1, v/v)) [%] | λmaxAb ([2]; CM:ACN (4:1, v/v)) [nm] | λmaxFl ([2]; CM:ACN (4:1, v/v)) [nm] | emission when excited at 532 nm ([2]; PB and CM) | ΦF ([2]; PB:ACN (4:1, v/v)) [%] | λmaxFl ([2]; PB:ACN (4:1, v/v)) [nm] | λmaxAb ([2]; PB:ACN (4:1, v/v), c=0.6 μM) [nm] | half-life ([3]; PB (10 mmol buffer), in PB with 20% acetonitrile) [h] | half-life [3, 5] [h] | half-life at 0.6 μM [3, 5] [h] | growth inhibition (Panc-1) | Fluorescence of 5-CLB accumulated in the cells in presence of free Oct (SSTRs) | half-life at 10 μM [4] [h] |
| --- | --- | --- | --- | --- | --- | --- | --- | --- | --- | --- | --- | --- | --- | --- |
| ~1.8 | COc1cc(C2c3[nH]c4ccccc4c3CC3COC(=O)N32)cc(OC)c1O/C=C/C(=O)Oc1ccc2c(c1)Oc1cc(OCC(=O)O)ccc1C21OC(=O)c2ccccc21 (stereo not drawn) [Aza-Flu-COOH, (E)-2-((3′-((3-(2,6-dimethoxy-4-(3-oxo-1,3,5,6,11,11a-hexahydrooxazolo[3′,4′:1,6]pyrido[3,4-b]indol-5-yl)phenoxy)acryloyl)oxy)-3-oxo-3H-spiro [isobenzofuran-1,9′-xanthen]-6′-yl)oxy) acetic acid] | – | – | – | – | – | – | – | – | – | – | – | – | – |
| – | C[C@@H](O)[C@H](NC(=O)[C@@H]1CSSC[C@H](NC(=O)[C@@H](Cc2ccccc2)NC(=O)CCCNC(=O)CCCCCN2/C(=C/C=C3\CCCC(/C=C/C4=[N+](C)c5ccccc5C4(C)C)=C3OC(=O)CCCc3ccc(N(CCCl)CCCl)cc3)C(C)(C)c3ccccc32)C(=O)N[C@@H](Cc2ccccc2)C(=O)N[C@H](Cc2c[nH]c3ccccc23)C(=O)N[C@@H](CCCCN)C(=O)N[C@@H]([C@@H](C)O)C(=O)N1)C(N)=O [5-CLB] | 5.9 | 787 | 805 | no detectable emission | 1.5 | 796 | 783 | ~2.4 | ~2 | ~2 | dramatically higher growth inhibition compared to CLB or OctA | decreased proportionally to the Oct concentration | ~3.33 |
